The DeepSol protein solubility set

Test: soluble on expression in E. coli; label from the status in PepcDB or PDB records

Row | Sequence | soluble on expression in E. coli
1 | MSLSLREEALHLHKVNQGKLESKSKVEVRNAKDLSLAYSPGVAEPCKDIHEDINKVYDYTMKGNMVAVVTDGTAVLGLGNIGPEAALPVMEGKAVLFKSFAGVDAFPIALNTNDVDKIVETVKLLEPTFGGVNLEDIAAPNCFIIEERLKKETNIPVFHDDQHGTAIVTVAGLVNALKLSGKSMSSIKVVANGAGAAGIAIIKLLHHYGVRDIVMCDSKGAIYEGRPNGMNDVKNEVAKFTNQDRKDGSLKDVIVDADVFIGVSVAGALTKEMVQSMAKDPIIFAMANPNPEIMPEDAREAGASVVGTGRSDFPNQVNNVLAFPGIFRGALDVRATHINEEMKIAAVEAIASLVSEDELSADYVIPAPFDKRVAPAVAKAVAKAAMETGVARITVDPEEVAEKTRKLTIIGEEGHHHHHH | soluble
2 | MSLNQTDLSASSTSSTSRPLVAVTGADGFIGSHLTEDLVRAGYRVRAMAIYNSQGSYGWLDTVPGEVMEHVEVQLGDVRDAGSVRALMRDVQTVYHLAALIAIPYSYVAPRSYVETNITGTLNVLEAARDLGTGRVIHTSTSEVYGTARSVPIHESHPLQGQSPYSATKIGADKLAESYFLSFGLPVVTLRPFNTYGPRQSARAVIPTIISQLAAGRTEIKLGDLRPTRDFNYVADTARAFRAVGEAGPEVLGRTLNAGSGREISVGDTVKLIAQVMGKDVEVKQEDERLRPEGSEVMRLLADHRELQTLTGWQPQVTLEEGLKRTAEWFTDAGNLARYRVDQYTEGHHHHHH | soluble
3 | MAHHHHHHMCREPYLLLSMHRLLLAAYWPDSDRLHCSEREWPLTEHSGAVPFMVESANGRVLPWCPWRDNSVAELLAVVRGMMELAGMKLGIVVGDRLVPD | soluble
4 | MTDNLNLGAIDLGTDDEFIARHIGPRAADTQAMLQRLGYDSLDTLIGNVIPDSIKGSSVLDLPAGMGEAEALASLKAIAARNRALRSFIGQGYYNCHTPAPILRNLLENPAWYTAYTPYQPEISQGRLEALLNFQTLVSDLSGLPIANASMLDEATAAAEAMTFCKRLSKNRTSQAFFASRHCHPQTLDVLRTRAEPLGIEVVVGDESTIEDFSAYFGALLQYPTCDGEIVDYRELVSRFHAVDALVAVAADLLALTLLTPPGEFGADVAIGSAQRFGVPLGFGGPHAAYFATRDAFKRDMPGRLVGVSIDRHGKPAYRLAMQTREQHIRREKATSNICTAQVLLANIASMFAVYHGPQGLLRIARRTHRLTAILAAGLERLGVAVEQKHFFDTLSLATGARTAAIHAKARAAGINLREIDAGRLGLSLDETVRQTDVETLWGLLAEEGQALPDFAALAASSGDRLPVELLRQSAILSHPIFNRHHSETELMRYLRKLADKDLALDRTMIPLGSCTMKLNAASEMIPVTWAEFGNLHPFAPAEQSEGYRQLTDELEAMLCSATGYDAVSLQPNAGSQGEYAGLLAIRAYHQSRGDSQRDICLIPSSAHGTNPATASMVGMRVVVVACDARGNVDVEDLRNKASEHKERLAALMITYPSTHGVFEEAIREICAIVHDCGGQVYIDGANMNAMVGLCAPGKFGGDVSHLNLHKTFCIPHGGGGPGVGPIGVRAHLAPFLPGHARGERKEGAVSAAPYGSASILPITWMYIRMMGGEGLKRASEMAILNANYIAHRLEEHYPVLYAGGNGLVAHECILDLRPLKDSSGISVDDVAKRLMDFGFHAPTMSFPVAGTLMIEPTESESKAELDRFCDAMIRIREEIRAVERGELDKEDNPLKNAPHTAAELLGEWNHAYSREQAAYPLASLVEAKYWPPVGRVDNVYGDRNLTCSCPPIEAYS | not soluble
5 | MASQTNQTVVDTKKIETENPPKPQVPASSCRKRVKDDNATFFANLKDHMDEFIHASMDEHKTCFKNTMDKIFGSFSKAEAVAEKQIEAKEVVEIHSPLQTAVTK | soluble
6 | MTLYPFPFTTKKQDAESMVDLFSLIKDYLVDQEDGIRHLITWFLNLVMEEEALLQVGAQRYERTDSRKASRNGYKPRTLLTKYGELELLKPQFREFPFETQVFEKYSRVEQAILSAVAESYLQGVSTRRVDKVMTALGVEGISASSVSRITKELDEKVSEFLSKPIEHEIPYLFIDATYLKVRDGLHYENKALFIVSGVRDDGFREILGARLADSEDSLFWQDLFEDLKERGLRGVKLIVSDGHKGIQKAVRESFIGSSWQMCHVHLIRQALKKVQKKKQKEVADKIKEALVDRHKYNDLIRELDKMEYKSAADTLENFQYDVMNYMQFPQSHWRKIRTTNMMERTNKEIKRRTKVVGAFPNQESVLRLVVSILIDINEDWITGNRYIVMEQ | not soluble
7 | MSLKRLTSRRQKGGGCPDLTIRAHHLLCMRGFQGYGYSEEFTENLARIIHEIKGNPSAFLMIVDFPDDICRACPFMDGLRCLRDEERIRSMDRRVLELLKLESGCMVTFHDIEDALLALITSGKIMEICGECSWMDLCLIHREGHHHHHH | not soluble
8 | MSETIFGKILTGEIPSFKVYEDDYVYAFLDISQVTKGHTLLIPKKASANIFETDEETMKHIGAALPKVANAIKRAFNPDGLNIIQNNGEFADQSVFHIHFHLIPRYENDIDGFGYKWETHEDILDNDAKQQIAEQIQAQF | not soluble
9 | MQVRRAVLGAAHVERSLANLTPFNEEFQEMITRHAWGDIWTRPGLPRHTRSLVTIAMLIGMNRNEELKLHLRAAKNNGVSRDEIKEVIMQSAIYCGIPAANATFHLAESVWDELGVESQQASR | not soluble
10 | DNPINIAVPGVAQQNVSATINNGTLTRRGNLWIARPTKVGSEAIISVTAQSGGRTIQMAKTTLRVRALPDPLPYIEYKDVQGNTKRFKGGRLGKREILAAGGIKAALDDDLLEVNYTVVKFQLVFYDSMGNSIPEVSDGASFSERQKRQIQNLGKGKRFYVTEVIARGPDGIERKIPAIEVIVN | not soluble
11 | AHHHHHHGSSKNYKKHQAYIAGRDKMKVAVITGASRGIGEAIAKALAEDGYSLALGARSVDRLEKIAKELSEKHGVEVFYDYLDVSKPESVEEFARKTLAHFGDVDVVVANAGLGYFGRLEELTEEQFHEMIEVNLLGVWRTIKAFLNSLKRTGGVAIVVTSDVSARLLPYGGGYVATKWAARALVRTFQIENPDVRFFELRPGAVDTYFGGSKAGKPKEQGYLKPEEVAEAVKYLLRLPKDVRVEELMLRSIYQKPEY | soluble
12 | MSDSQTLVVKLGTSVLTGGSRRLNRAHIVELVRQCAQLHAAGHRIVIVTSGAIAAGREHLGYPELPATIASKQLLAAVGQSRLIQLWEQLFSIYGIHVGQMLLTRADMEDRERFLNARDTLRALLDNNIVPVINENDAVATAEIKVGDNDNLSALAAILAGADKLLLLTDQKGLYTADPRRNPQAELIKDVYGIDDALRAIAGDSVSGLGTGGMSTKLQAADVACRAGIDTIIAAGSKPGVIGDVMEGISVGTLFHAQATPLENRKRWIFGAPPAGEITVDEGATAAILERGSSLLPKGIKSVTGNFSRGEVIRICNLEGRDIAHGVSRYNSDALRRIAGHHSQEIDAILGYEYGPVAVHRDDMITR | not soluble
13 | MADNDFLSGEAIMVFKKEILDSHSDFTRSLSHQSASPEAYDQENVFSQDFQPFMKQDKETQNSASQPTSEQSLANRDPCTVPDDLREEMMRQRRKEDAFKTALCDAYKRSQACSYGDQCRFAHGVHELRLPMNPRGRNHPKYKTVLCDKFSMTGNCKYGTRCQFIHKIVDGNAAKLASGAHANTSSKSPARNAAAHNHSLFVPQGSTDRSMDLNQSLPIRQSDLVRAFARATRLDVSGYNSTAQLAQYFESQFQRIQQLSSHHH | not soluble
14 | MEKLKEFRGIKEHLGVFREAVKDAERIGFAGVPGVCTPFAQLFAYAVRDKDNIFIPNTDFSKARKLEVTEYGVELGEISPGNVDVLVLLGGLSMPGIGSDIEDVKKLVEDALEEGGELMGLCYMDMFARAGWYELLDFDCVINADIDGYVLRG | soluble
15 | QGVDQSPKPLIIGPEEDYDPGYFNNESDIIFQDLEKLKSRPAHLGVFLRYIFSQADPSPLLFYLCAEVYQQASPKDSRSLGKDIWNIFLEKNAPLRVKIPEMLQAEIDSRLRNSEDARGVLCEAQEAAMPEIQEQIHDYRTKRTLGLGSLYGENDLLDLDGDPLRERQVAEKQLAALGDILSAYAADRSAPMDFALNTYMSHAGIRLREA | soluble
16 | MTYLAVVLNGPKAKNGRKVFDSFLEQNRQMFWNRELTSACESITYMGFMRPGTLFVSGPASQLTVLKDAWARRILKPAMGYTITSLGDLGAIQQVEQMHFVPLGDVICDAVAQLNRQGLAATEQAIRQYVARHCPHVAPPGIEMVRQTITSLLSTGFVYKMADHYFVSVPTNSPMRPPAKAATKTTKTTVECQTGASMMCPQQTSTSSDEHVIEPAKKDHKKCQNSNRRSIFARLFSRGMKPQTIMPSASPIHVGGPPTPPPAAMLPTKNKYPTYHHDLNEECQRKARRRNHPRRGETQKLLSSSSECLKYYPVDMPETRPTRRRARMASPLRSSTPNNSDSAYSISPPHTDSNEEAGSISDSEINHTYININKFRRQNFDSTQFEDLTGATATTSEEPEILGRHIRGVLISNL | not soluble
17 | MPQNQSDRLKPKGSGDGPLGTALGRGAGVASDLWRRIRTRALSAIGPEAEAQLYEVHKEWLGDLSGKKVLEIGGGSPLSPWLADTARTYHAVSADPAELEALKVRLGEGRTARLIEADPMSGAFRETGYDVIYLHSVLHRMADRGPFLDRLLKKLAIEGRVVTTDPADGGALTRLVRTIDRPFRAESLPDHPVTEELKAELAERFYLINCVAPFRLGKAALVLGALHPELGRRVSERLIAADLKDRAAFNRLNASLQVSFLLGAPD | not soluble
18 | MSVSYKGTISKTHSVFKPEKGRYYIYGALGCPFTHRAILARSLKKLEPVLGLVLSHWQLDSKGARFLPAPHRPEKYKERFFTATGGIASAKLDESEELGDVNNDSARLFVDGAFDPVENISRLSELYYLNDPKYPGTKFTVPVLWDSKTRKIVNNESGDIIRILNSGVFDEFIQSEETNVIDLVPHDLIDEIDKNIKWVHPKINLGVYKVGLAENGKIYETEVKTLFENLQKMECVLKENYKRLEEQFSGNKQKILAKYFVLGQRLTEADIRLYPSIIRFDVVYVQHFKCNLKTIRDGFPYLHLWLINLYWNYAEFRFTTDFNHIKLFYIRMEVSRNKINQFGIVPLGPKPDISRL | soluble
19 | MRIWSSEHIFDHEWETVAQAAFRKYPNPLNRSITGIDVVKQTLEAGKILTERIIQSHFSIPSWATKLTGFSGTQYSHEYTVIDPTRKEFSLTTRNLNGSSFLRVDEKLTYTPAHEDPNKTILKQDVIVTITLPAFADYCEKTFLSIYSQNANKGRQGVEWVIDHLKKEYEAISTKVSSEVHEMSEKVLRSFGTTSSSSPKPSTPPPPST | not soluble
20 | MGSLLSTPEGSNPIGKAIGFLSQRKRPAVELQDDFEPEVKVQRTCEVQDEEAEEENIEFEHEIDEEEIEEQDEIVHEQSENDQNLKDSDEKKNEIVALEKSTEKDEELPIPEKEAQVDQEDTLENLFEKETESNNTNEQQENVETNDTTSNFDLNEAEERVDVFSNGLLTSIQSTQPEIIA | soluble
21 | MTMMTATQALSVNPATGQTLAAMPWANAQEIEHALSLAASGFKKWKMTSVAQRAQTLRDIGQALRAHAEEMAQCITREMGKPIKQARAEVTKSAALCDWYAEHGPAMLNPEPTLVENQQAVIEYRPLGVILAIMPWNFPLWQVLRGAVPILLAGNSYLLKHAPNVTGCAQMIARILAEAGTPAGVYGWVNANNEGVSQMINDPRIAAVTVTGSVRAGAAIGAQAGAALKKCVLELGGSDPFIVLNDADLELAVKAAVAGRYQNTGQVCAAAKRFIVEEGIAQAFTDRFVAAAAALKMGDPLVEENDLGPMARFDLRDELHQQVQASVAEGARLLLGGEKIAGEGNYYAATVLADVTPDMTAFRQELFGPVAAITVAKDAAHALALANDSEFGLSATIFTADDTLAAEMAARLECGGVFINGYSASDARVAFGGVKKSGFGRELSHFGLHEFCNVQTVWKNRV | soluble
